The data set concerns the molecule itself. In words: SEC; purified MBP-ZP-N-6his on Sephacryl S-300 HR (FPLC) and Bio-Sil SEC-250-5 (HPLC) columns, ~300 kDa Mr cut-off; buffer F (10 mM Na-HEPES pH 8.0, 100 mM NaCl, 1 mM maltose, 1 mM NaN3); also with 10 mM DTT, and after pre-incubation with 10 mM EDTA.

B1: MBP-ZP-N-6his fusion protein (PLAC1-homology region, ZP-N, of the ZP domain of mouse ZP3) (domain or fragment, UniProt P10761 42-143, looked up)
chain: VKVECLEAELVVTVSRDLFGTGKLVQPGDLTLGSEGCQPRVSVDTDVVRFNAQLHECSSRVQMTKDALVYSTFLLHDPRPVSGLSILRTNRVEVPIECRYPR
modifications: intramolecular disulfides Cys 46-Cys 139 and Cys 78-Cys 98 (ZP3 numbering)
notes: mouse ZP3 (zona pellucida sperm receptor), aa 42-143, the 102-amino acid ZP-N fragment; The assay buffer contained 1 mM maltose; also called recombinant ZP-N; ZP-N fragment; source: E. coli Origami B (DE3) (trxB gor), co-expressing ΔSSdsbC and TrxA(G33P, P34Y); purified (Ni2+ HiTrap Chelating HP, amylose resin, Mono Q); not shown: His6 (LEH6), C-terminal, kept
For the protein B1, the binding result is “binds”.

The record behind these values is publication PMC1479692, “The PLAC1-homology region of the ZP domain is sufficient for protein polymerisation” (BMC Biochemistry, 2006).
